# Measurements reported in IntAct's records for PubMed 23664119.
# B1: Protein bicaudal D homolog 2 (Homo sapiens), Q8TD16 (parent)
# chain: MSAPSEEEEYARLVMEAQPEWLRAEVKRLSHELAETTREKIQAAEYGLAVLEEKHQLKLQFEELEVDYEAIRSEMEQLKEAFGQAHTNHKKVAADGESREESLIQESASKEQYYVRKVLELQTELKQLRNVLTNTQSENERLASVAQELKEINQNVEIQRGRLRDDIKEYKFREARLLQDYSELEEENISLQKQVSVLRQNQVEFEGLKHEIKRLEEETEYLNSQLEDAIRLKEISERQLEEALETLKTEREQKNSLRKELSHYMSINDSFYTSHLHVSLDGLKFSDDAAEPNNDAEALVNGFEHGGLAKLPLDNKTSTPKKEGLAPPSPSLVSDLLSELNISEIQKLKQQLMQMEREKAGLLATLQDTQKQLEHTRGSLSEQQEKVTRLTENLSALRRLQASKERQTALDNEKDRDSHEDGDYYEVDINGPEILACKYHVAVAEAGELREQLKALRSTHEAREAQHAEEKGRYEAEGQALTEKVSLLEKASRQDRELLARLEKELKKVSDVAGETQGSLSVAQDELVTFSEELANLYHHVCMCNNETPNRVMLDYYREGQGGAGRTSPGGRTSPEARGRRSPILLPKGLLAPEAGRADGGTGDSSPSPGSSLPSPLSDPRREPMNIYNLIAIIRDQIKHLQAAVDRTTELSRQRIASQELGPAVDKDKEALMEEILKLKSLLSTKREQITTLRTVLKANKQTAEVALANLKSKYENEKAMVTETMMKLRNELKALKEDAATFSSLRAMFATRCDEYITQLDEMQRQLAAAEDEKKTLNSLLRMAIQQKLALTQRLELLELDHEQTRRGRAKAAPKTKPATPSL
# Columns and labels:
# [1] = variants of: B1; details: with dc1i1_human DYNC1I1, O14576
# [2] = variants of: B1; details: with rab6a_human RAB6A
# [3] = variants of: B1; details: with rab6a_human RAB6A; remark: listed apart in the source
# dc1i1_human DYNC1I1, O14576, sequence (O14576 whole entry): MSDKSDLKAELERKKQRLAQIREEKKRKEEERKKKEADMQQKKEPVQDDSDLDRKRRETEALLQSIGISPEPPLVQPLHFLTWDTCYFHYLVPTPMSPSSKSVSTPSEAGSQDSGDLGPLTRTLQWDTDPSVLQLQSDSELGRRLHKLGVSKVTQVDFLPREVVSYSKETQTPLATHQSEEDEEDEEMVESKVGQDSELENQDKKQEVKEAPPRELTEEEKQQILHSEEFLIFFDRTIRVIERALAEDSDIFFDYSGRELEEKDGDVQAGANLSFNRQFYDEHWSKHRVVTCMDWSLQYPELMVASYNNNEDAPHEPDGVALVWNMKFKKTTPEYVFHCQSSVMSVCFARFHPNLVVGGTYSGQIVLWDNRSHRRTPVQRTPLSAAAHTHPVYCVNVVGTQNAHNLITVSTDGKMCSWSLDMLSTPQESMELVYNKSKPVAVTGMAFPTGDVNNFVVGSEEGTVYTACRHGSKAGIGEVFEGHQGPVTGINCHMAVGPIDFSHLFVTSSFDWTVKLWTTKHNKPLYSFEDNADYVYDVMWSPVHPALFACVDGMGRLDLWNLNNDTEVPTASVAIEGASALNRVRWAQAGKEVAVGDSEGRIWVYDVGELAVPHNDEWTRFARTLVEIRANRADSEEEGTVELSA
Variant,effect of a mutation on the interaction [1],effect of a mutation on the interaction [2],effect of a mutation on the interaction [3]
S107L,increasing interaction strength,with no effect,decreasing interaction strength
E774G,–,decreasing interaction strength,–
